The results in this text go back to patent US20240336947.

In this data set the target is deglucosylated type IV collagen.

B1: R699, mimiviral collagen galactosylhydroxylysyl glucosyltransferase (GGT) (protein)
chain: MEQSNNDDNLLVLGIGISVHKTDGVLRFEKYCQAHNLQYMIVGEGKKWNGGNLESEAGGGQKINELLIALESIKDNKLIVVCDTYDLIPLSGPEEILRKYRFLTPDNKVVFSSELYCWPDASLVERYPKVDTKYKYLNSGAFMGYRDDIYEMIKNGVKDRDDDQLFFSIKFIETDKIVLDYKCELFQAMYRCNSDLVVHKNRIFNGYTNSYPVFAHGNGPAKKLLNHMEGYFMTEPIDGSSNTINTFKLDNEPKVFFALYVDSNDLSALKQFLGKVASIQYGNKVIYLYDRSDNEQNRKLIQISYPNYHTGVTKYVFDDFKKSDAQFYFLLEQNCIITKKDILHELIMQVKDNHRVISPMIGYEQNSTRTNFWGDIEDGYYKRSENYLDLAKHKVRGLWNVPYVYGVILMHESVVRNWDLSMVKYNDKDMDLCFSLRKHTIFMYMINNNNYGYMV
As to B1, the “glucosylation of type IV collagen detected by LC-MS with UDP-[UL-13C6]-glucose” value was “R699 (FIG. 4C,4D) glucosylates collagen peptidyl galactosylhydroxylysine to [13C6]-glucosylgalactosylhydroxylysine”.
